Legend:
[1] = molecular target: T1, Subtilisin-treated microtubules (lacking the C-terminal tails of α- and β-tubulin) (bovine, UniProt Q6B856 1-445, Purified bovine brain tubulin is an isotype mixture; the representative isotypes alpha-1B and beta-2B are assumed, as the paper states none. Cleavage limits are not given; the conventional major sub); test: co-sedimentation; 2 μM kinesin, 0–4 μM paclitaxel-stabilised microtubules, no added nucleotide, high ionic strength (88 mM; ATPase buffer with 75 mM KCl), 298 K, 100,000 × g 30 min; supernatant and pellet by SDS-PAGE; apparent constants, fit to Equation 3; details: both partners purified
T1 sequence (chain, as listed by the source, chain 1 of 2): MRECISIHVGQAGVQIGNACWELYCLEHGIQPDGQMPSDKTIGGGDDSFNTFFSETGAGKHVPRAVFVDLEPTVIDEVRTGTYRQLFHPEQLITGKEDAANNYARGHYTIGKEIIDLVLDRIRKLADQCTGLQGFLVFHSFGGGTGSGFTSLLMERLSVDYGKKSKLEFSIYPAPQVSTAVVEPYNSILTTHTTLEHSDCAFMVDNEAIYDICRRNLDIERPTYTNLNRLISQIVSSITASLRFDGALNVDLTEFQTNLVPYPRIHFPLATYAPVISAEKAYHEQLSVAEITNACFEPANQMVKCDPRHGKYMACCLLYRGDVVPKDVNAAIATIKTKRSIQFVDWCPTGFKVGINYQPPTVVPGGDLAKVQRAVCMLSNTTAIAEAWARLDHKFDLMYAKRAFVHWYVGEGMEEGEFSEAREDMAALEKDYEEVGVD
T1 sequence (Q6B856 1-433, chain 2 of 2): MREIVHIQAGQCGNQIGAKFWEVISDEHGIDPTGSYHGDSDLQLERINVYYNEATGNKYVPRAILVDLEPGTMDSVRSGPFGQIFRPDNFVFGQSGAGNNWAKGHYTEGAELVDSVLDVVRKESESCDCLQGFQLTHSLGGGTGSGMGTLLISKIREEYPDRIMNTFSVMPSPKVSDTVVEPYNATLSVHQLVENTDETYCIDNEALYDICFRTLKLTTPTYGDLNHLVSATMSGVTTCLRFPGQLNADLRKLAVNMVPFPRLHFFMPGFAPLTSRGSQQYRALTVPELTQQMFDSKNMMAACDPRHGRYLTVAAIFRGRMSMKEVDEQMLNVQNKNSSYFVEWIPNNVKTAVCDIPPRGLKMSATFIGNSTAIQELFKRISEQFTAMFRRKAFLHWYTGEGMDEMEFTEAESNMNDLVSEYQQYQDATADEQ

[2] = molecular target: T1, Subtilisin-treated microtubules …; test: co-sedimentation; 2 μM kinesin, 0–4 μM paclitaxel-stabilised microtubules, no added nucleotide, low ionic strength (21 mM; ATPase buffer with 7.5 mM KCl), 298 K, 100,000 × g 30 min; supernatant and pellet by SDS-PAGE; apparent constants, fit to Equation 3; details: both partners purified

stoichiometry N [1]: 2.2 ± 0.2 | stoichiometry N [2]: 5.4 ± 0.4
B1: Cin8-trx (Cin8 motor domain, residues 70–535, fused to N-terminal thioredoxin (TrxA), His6, TEV cleavage and Arg9 tags) (domain or fragment, S. cerevisiae, UniProt P27895 70-535, looked up)
chain: ISINTTGDTGITAQMNAKRYTVDKVFGPGASQDLIFDEVAGPLFQDFIKGYNCTVLVYGMTSTGKTYTMTGDEKLYNGELSDAAGIIPRVLLKLFDTLELQQNDYVVKCSFIELYNEELKDLLDSNSNGSSNTGFDGQFMKKLRIFDSSTANNTTSNSASSSRSNSRNSSPRSLNDLTPKAALLRKRLRTKSLPNTIKQQYQQQQAVNSRNNSSSNSGSTTNNASSNTNTNNGQRSSMAPNDQTNGIYIQNLQEFHITNAMEGLNLLQKGLKHRQVASTKMNDFSSRSHTIFTITLYKKHQDELFRISKMNLVDLAGSENINRSGALNQRAKEAGSINQSLLTLGRVINALVDKSGHIPFRESKLTRLLQDSLGGNTKTALIATISPAKVTSEETCSTLEYASKAKNIKNKPQLGSFIMKDILVKNITMELAKIKSDLLSTKSKEGIYMSQDHYKNLNSDLESYKN
notes: Kinesin-5 Cin8, S. cerevisiae, motor domain, residues 70–535; Expected mass 67.3 kDa; source: E. coli B834(DE3) with pRILP, purified (SP-Sepharose, nickel-nitrilotriacetic acid, Sephadex G-25); not shown: thioredoxin (TrxA), N-terminal, kept; His6, N-terminal, kept; TEV cleavage tag, N-terminal, kept; Arg9, N-terminal, kept

Source: PMC5582858, “The yeast kinesin-5 Cin8 interacts with the microtubule in a noncanonical manner” (The Journal of Biological Chemistry, 2017)
